# Measured values as given in the supplement of paper PMC9233669.
# This sample holds only a part of the variants without activity.
# Key:
# biotinyl-Phe-oxazolone = experiment: self-aminoacylation, catalytic enhancement (BFO) (fold over background); higher = more active; k-Seq, kA / k0A0; sequences stand for … in GGGAAUGGAUCCACAUCUACGAAUUC…UUCACUGCAGACUUGACGAAGCUG
# Summary of the method: (§1)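 Each biotinyl-aminoacyl-oxazolone, at 2–1250 μM, was incubated with mutagenized RNA pools (0.43 μM) carrying a 21-nt variable region. The 50 μL reactions contained HEPES/NaCl/KCl/MgCl2/CaCl2 buffer with 5% acetonitrile at pH 6.9–7.0 and ran for 90 minutes at room temperature. After streptavidin capture, RNA was measured by qPCR in triplicate and by Illumina sequencing, and catalytic enhancement was calculated as median kA over the uncatalyzed rate from a pseudo-first-order fit of per-sequence fraction reacted.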
# biotinyl-Ile-oxazolone = experiment: self-aminoacylation, catalytic enhancement (BIO) (fold over background); higher = more active; k-Seq, kA / k0A0; sequences stand for … in GGGAAUGGAUCCACAUCUACGAAUUC…UUCACUGCAGACUUGACGAAGCUG
# Summary of the method: as §1
# biotinyl-Met-oxazolone = experiment: self-aminoacylation, catalytic enhancement (BMO) (fold over background); higher = more active; k-Seq, kA / k0A0; sequences stand for … in GGGAAUGGAUCCACAUCUACGAAUUC…UUCACUGCAGACUUGACGAAGCUG
# Summary of the method: as §1
# biotinyl-Val-oxazolone = experiment: self-aminoacylation, catalytic enhancement (BVO) (fold over background); higher = more active; k-Seq, kA / k0A0; sequences stand for … in GGGAAUGGAUCCACAUCUACGAAUUC…UUCACUGCAGACUUGACGAAGCUG
# Summary of the method: as §1
# biotinyl-Leu-oxazolone = experiment: self-aminoacylation, catalytic enhancement (BLO) (fold over background); higher = more active; k-Seq, kA / k0A0; sequences stand for … in GGGAAUGGAUCCACAUCUACGAAUUC…UUCACUGCAGACUUGACGAAGCUG
# Summary of the method: as §1
# biotinyl-Trp-oxazolone = experiment: self-aminoacylation, catalytic enhancement (BWO) (fold over background); higher = more active; k-Seq, kA / k0A0; sequences stand for … in GGGAAUGGAUCCACAUCUACGAAUUC…UUCACUGCAGACUUGACGAAGCUG
# Summary of the method: as §1
Sequence,self-aminoacylation (biotinyl-Phe-oxazolone),self-aminoacylation (biotinyl-Ile-oxazolone),self-aminoacylation (biotinyl-Met-oxazolone),self-aminoacylation (biotinyl-Val-oxazolone),self-aminoacylation (biotinyl-Leu-oxazolone),self-aminoacylation (biotinyl-Trp-oxazolone)
AGGUUUGGUAAUAGUCGCAAG [Fam3.1 aminoacylation ribozyme variant],3.19,1.82,1.72,1.41,1.77,2.22
AGUACCAUGGUCAUCGAGUGA [Fam2.1 aminoacylation ribozyme variant],29.9,4.22,6.66,4.22,7.11,8.32
AGUACCCAGGUCAUCGAGUGA [Fam2.1 aminoacylation ribozyme variant],16.6,3.36,5.45,3.2,5.05,6.61
AGUACCCUAGUCAUCGAGUGA [Fam2.1 aminoacylation ribozyme variant],24.6,3.2,4.86,3.13,4.92,6.29
AGUACCCUGAUCAUCGAGUGA [Fam2.1 aminoacylation ribozyme variant],26.6,3.22,6.82,3.5,6.72,8.64
AGUACCCUGGUCAACGAGUGA [Fam2.1 aminoacylation ribozyme variant],21.6,2.91,5.55,2.63,4.71,5.71
AGUACCCUGGUCAUCCAGUGA [Fam2.1 aminoacylation ribozyme variant],34.7,3.06,5.15,2.86,5.87,6.9
AGUACCCUGGUCCUCGAGUGA [Fam2.1 aminoacylation ribozyme variant],18.1,2.7,4.14,2.81,5.58,4.66
AGUACCCUUGUCAUCGAGUGA [Fam2.1 aminoacylation ribozyme variant],18.4,3.06,5.76,3.48,6.28,6.7
AGUCACCUAGGUCACCGGGUG [Fam2.2 aminoacylation ribozyme variant],31.7,4.07,4.49,4.47,4.38,6.49
AGUCACCUAGGUCAUCCGGUG [Fam2.2 aminoacylation ribozyme variant],56.9,5.6,6.2,5.32,6.49,7.84
AGUCACCUAGGUCAUCGCGUG [Fam2.2 aminoacylation ribozyme variant],97,8.4,14.4,9.1,18.3,14.3
AGUCACCUAGGUCAUCGGAUG [Fam2.2 aminoacylation ribozyme variant],1.24,1.2,1.21,1.04,1.18,0.786
AGUCACCUAGGUCAUCGGCUG [Fam2.2 aminoacylation ribozyme variant],18.9,2.5,2.18,2.59,2.27,3
AGUCACCUAGGUCAUCGGGUA [Fam2.2 aminoacylation ribozyme variant],60,6.85,11.6,6.5,12.7,9.54
AGUCACCUAGGUUAUCGGGUG [Fam2.2 aminoacylation ribozyme variant],32.2,4.39,4.56,4.56,4.68,6.62
AGUCACCUUGGUCAUCGGGUG [Fam2.2 aminoacylation ribozyme variant],49.8,4.89,5.4,4.85,6.96,5.71
AGUCACGUAGGUCAUCGGGUG [Fam2.2 aminoacylation ribozyme variant],52.9,3.96,5.11,5.07,5.72,6.71
AGUGCCCUGGUCAUCGAGUGA [Fam2.1 aminoacylation ribozyme variant],67.6,6.36,12.5,5.79,14.5,13.6
AUAACCAUGGUCAUCGAGUGA [Fam2.1 aminoacylation ribozyme variant],23.8,3.91,7.91,3.7,7.68,8.43
AUAACCCUAGUCAUCGAGUGA [Fam2.1 aminoacylation ribozyme variant],5.43,2.68,5.44,2.97,5.25,6.64
AUAACCCUGGACAUCGAGUGA [Fam2.1 aminoacylation ribozyme variant],28.8,3.02,6.69,2.47,6.63,5.65
AUAACCCUGGUAAUCGAGUGA [Fam2.1 aminoacylation ribozyme variant],42.6,3.97,7.93,3.58,8.57,9.38
AUAACCCUGGUCAUAGAGUGA [Fam2.1 aminoacylation ribozyme variant],49,3.62,8.34,3.61,8.65,9.78
AUAACCCUGGUCAUCCAGUGA [Fam2.1 aminoacylation ribozyme variant],22.8,3.62,5.52,3.21,6.28,6.17
AUAACCCUGGUCAUCGAAUGA [Fam2.1 aminoacylation ribozyme variant],0.579,0.882,1.07,0.954,0.798,0.785

Sequence,self-aminoacylation (biotinyl-Phe-oxazolone),self-aminoacylation (biotinyl-Ile-oxazolone),self-aminoacylation (biotinyl-Met-oxazolone),self-aminoacylation (biotinyl-Val-oxazolone),self-aminoacylation (biotinyl-Leu-oxazolone),self-aminoacylation (biotinyl-Trp-oxazolone)
AUAACCCUGGUCAUCGAGCGA [Fam2.1 aminoacylation ribozyme variant],1.91,1.62,1.58,1.59,2.88,1.52
AUAACCCUGGUCAUCGAUUGA [Fam2.1 aminoacylation ribozyme variant],0.646,0.94,0.883,0.974,1.02,0.392
AUAACCCUGGUCAUCUAGUGA [Fam2.1 aminoacylation ribozyme variant],45.7,4.52,8.88,4.77,9.2,10.1
AUAACCCUUGUCAUCGAGUGA [Fam2.1 aminoacylation ribozyme variant],21.5,3.29,6.3,3.13,6.26,7.89
AUACACCUACGUCAUCGGGUG [Fam2.2 aminoacylation ribozyme variant],31.8,3.12,4.6,2.49,5.2,3.83
AUACACCUAGGGCAUCGGGUG [Fam2.2 aminoacylation ribozyme variant],17.1,2.99,2.83,2.43,3.71,4.14
AUACACCUAGGUCAGCGGGUG [Fam2.2 aminoacylation ribozyme variant],15.5,2.29,3.8,2.15,3.49,3.08
AUACACCUAGGUCAUAGGGUG [Fam2.2 aminoacylation ribozyme variant],3.76,1.35,1.23,1.43,1.36,2.14
AUACACCUAGGUCAUCGGGGG [Fam2.2 aminoacylation ribozyme variant],4.96,1.85,1.29,1.73,1.39,1.22
AUACACCUAGGUCAUCGGGUG [Fam2.2 aminoacylation ribozyme variant],19.8,2.93,3.88,2.96,3.88,4.29
AUACACCUAGGUCAUCGGGUU [Fam2.2 aminoacylation ribozyme variant],1.76,2.4,2.15,2.14,2.79,2.69
AUACACCUAGGUCAUGGGGUG [Fam2.2 aminoacylation ribozyme variant],18.6,2.52,3.51,2.26,3.49,3.4
AUACACCUGGGUCAUCGGGUG [Fam2.2 aminoacylation ribozyme variant],14.8,3.31,4.39,3.54,4.41,3.69
AUACACCUUGGUCAUCGGGUG [Fam2.2 aminoacylation ribozyme variant],19.9,3.47,3.63,2.89,4.72,4.4
AUACUGCAAACAAUCGGUCUG [Fam1A.1 aminoacylation ribozyme variant],2.49,1.08,1.09,1.05,1.18,1.44
AUACUUCAAACAAGCGGUCUG [Fam1A.1 aminoacylation ribozyme variant],0.83,0.977,0.884,0.986,1.01,0.889
AUACUUCAAACAAUAGGUCUG [Fam1A.1 aminoacylation ribozyme variant],1.25,1.08,0.812,0.923,0.835,0.803
AUACUUCAAACAAUCGAUCUG [Fam1A.1 aminoacylation ribozyme variant],0.915,0.684,0.535,0.59,0.485,0.648
AUACUUCAAACAAUCGUUCUG [Fam1A.1 aminoacylation ribozyme variant],1.23,0.709,0.81,0.745,0.706,0.897
AUACUUCAAACCAUCGGUCUG [Fam1A.1 aminoacylation ribozyme variant],0.887,1.1,0.774,0.917,0.902,1.07
AUACUUCAAGCAAUCGGUCUG [Fam1A.1 aminoacylation ribozyme variant],2.15,0.786,0.824,0.77,0.853,1.48
AUCACCCCGGUCAUCGAGUGA [Fam2.1 aminoacylation ribozyme variant],52.6,4.51,8.33,4.47,10.2,9.73
AUCACCCUGGUCAUAGAGUGA [Fam2.1 aminoacylation ribozyme variant],85.7,5.17,13.6,4.92,13.2,13.2
AUCACCCUGGUCAUCCAGUGA [Fam2.1 aminoacylation ribozyme variant],41.2,4.34,6.56,3.61,7.91,6.77
AUCACUCUGGUCAUCGAGUGA [Fam2.1 aminoacylation ribozyme variant],13.9,3.2,3.12,2.9,3.85,4.03
